The values that follow come from article PMC3896610.

Where two headings read alike, the source gives them in different places.

In assay [1] the target is IgG1-K409R-CD20 (human). Description: analytical cation-exchange chromatography.
The target in assay [2] is IgG1-K409R-CD20 (human). The assay can be described thus: analytical cation-exchange chromatography. This is another data set of the same source.

B1: IgG1-F405L-EGFR (antibody, V domains shown)
VH: QVQLVESGGGVVQPGRSLRLSCAASGFTFSTYGMHWVRQAPGKGLEWVAVIWDDGSYKYYGDSVKGRFTISRDNSKNTLYLQMNSLRAEDTAVYYCARDGITMVRGVMKDYFDYWGQGTLVTVSS
VL: AIQLTQSPSSLSASVGDRVTITCRASQDISSALVWYQQKPGKAPKLLIYDASSLESGVPSRFSGSESGTDFTLTISSLQPEDFATYYCQQFNSYPLTFGGGTKVEIK
B1: the % bsIgG1-EGFRxCD20 by CIEX in the assay with IgG1-K409R-CD20 (human) [1] was found to be 95%; in the assay with IgG1-K409R-CD20 (human) [2], 96.3%.
